From the supplement of paper PMC9732359
± gives the uncertainty stated by the source.

Experiment: protein stability index of a GFP-peptide fusion (yeast GPS) (PSI 1-4); higher = more stable; sorted into four equal gates, so the index is relative within each strain
Outline: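 Peptides tiling yeast proteins in 17-residue segments were fused downstream of GFP, with Cherry expressed from the same plasmid. As a pooled library in yeast, mid-log cultures grown in leucine-free medium were sorted into four equal gates by GFP/Cherry fluorescence ratio. Gate plasmids were PCR-amplified and Illumina-sequenced, and barcodes linked reads to strains. Each peptide received a protein stability index equal to the sum of each gate's read frequency times its gate number.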

Row | Sequence | protein stability index (doa10∆) | protein stability index (pdr5∆) | protein stability index (san1∆) | protein stability index (ubr1∆)
1 | ALLQRLKTNGKQNNKDF [MTW1] | 2.97 ± 0.1 | 3.33 ± 0.14 | 3.04 ± 0.13 | 2.28 ± 0.091
2 | GSIAMARVLFDDMVEYE [CYT1] | 3.51 ± 0.18 | 3.33 ± 0.12 | 3.04 ± 0.1 | 3.35 ± 0.097
3 | TVRASSLQDLIYKRGQA [SMC2] | 2.12 ± 0.073 | 3 ± 0.088 | 2.62 ± 0.08 | 2.51 ± 0.036
4 | KMMSFQANPTEESISKF [RPB5] | 3.02 ± 0.077 | 3.17 ± 0.076 | 2.4 ± 0.2 | 3.15 ± 0.12
5 | IFEAISLSDELNLDEIV [YJL039C/NUP192] | 2.76 ± 0.067 | 2.73 ± 0.064 | 2.72 ± 0.042 | 2.87 ± 0.054
6 | ITMESVHEWEVSKPSLL [PRP8] | 3.29 ± 0.069 | 3.29 ± 0.069 | 3.29 ± 0.066 | 3.24 ± 0.056
7 | TLDNIDDINKAKAVWEN [ARP9] | 3.14 ± 0.058 | 3.18 ± 0.062 | 3.29 ± 0.051 | 3.27 ± 0.058
8 | KCNDGVVFAVEKLITSK [PRE10] |  |  | 2.87 ± 0.22 | 
9 | VRIMKAKRNLPHTTLVN [CDC53] | 1.9 ± 0.093 | 2.23 ± 0.07 | 1.53 ± 0.16 | 1.77 ± 0.072
10 | DTSRPDLEWQELTSFSS [DSN1] | 3.18 ± 0.053 | 3.05 ± 0.053 | 3.08 ± 0.055 | 2.85 ± 0.042
11 | LLAEEEELILPNTKDAM [PRP8] | 3.16 ± 0.089 | 3.44 ± 0.072 | 3.36 ± 0.063 | 3.04 ± 0.079
12 | SPFRPLEKTSRILNFFD [YMR153W/NUP53] | 2.85 ± 0.13 | 3.22 ± 0.093 | 2.72 ± 0.087 | 2.83 ± 0.07
13 | NNLSSMNLDFDIEEGPI [MCD1] | 2.91 ± 0.046 | 3.15 ± 0.042 | 3.21 ± 0.037 | 3.19 ± 0.032
14 | QGISGSQQNIVPNSSDQ [SNF2] | 2.92 ± 0.05 | 3.11 ± 0.06 | 3.16 ± 0.041 | 2.95 ± 0.053
15 | SKIRKIHIQETQEFSKN [SIR3] | 3.45 ± 0.11 | 3.08 ± 0.15 |  | 3.36 ± 0.084
16 | AFRTIESKSDDNSATSY [RRI1] | 3.06 ± 0.079 | 3.26 ± 0.079 | 3.15 ± 0.053 | 3.34 ± 0.091
17 | PAGKQVEISLVNGAKNL [FAS1] | 2.63 ± 0.27 | 3.23 ± 0.23 |  | 2.31 ± 0.19
18 | TSTITKYKQLLLKDDTY [RPN3] | 2.71 ± 0.12 | 2.73 ± 0.15 | 2.89 ± 0.073 | 2.9 ± 0.084
19 | KIHSILPVMESLDSCTA [YJR042W/NUP85] | 2.24 ± 0.09 | 2.23 ± 0.079 | 2 ± 0.13 | 2.24 ± 0.068
20 | KRRFDPSSSDSNGPRAA [RRP6] | 3.25 ± 0.073 | 3.31 ± 0.089 | 3.21 ± 0.048 | 3.33 ± 0.052
21 | SKVTKKHGAKKVAKRTK [RPL27B] | 3.42 ± 0.27 | 3.02 ± 0.2 | 3.27 ± 0.2 | 3.26 ± 0.22
22 | LQLLPLQKAVRGHVLQF [SNF2] | 1.22 ± 0.029 | 1.29 ± 0.041 | 1.23 ± 0.081 | 1.16 ± 0.026
23 | LLGYTGIPTDKGPRFRK [PRE8] | 2.81 ± 0.18 | 3.02 ± 0.14 | 2.66 ± 0.066 | 2.98 ± 0.11
24 | IDTLLYLMTYPQQPMVK [RET1] | 1.52 ± 0.097 | 2.09 ± 0.12 | 2.33 ± 0.13 | 1.53 ± 0.056
25 | LIEYMENDAKKSKGDVD [NUT1] | 3.05 ± 0.11 | 3.1 ± 0.079 | 3.1 ± 0.08 | 3.03 ± 0.058
26 | STVQTPITASMAAALPN [PGD1] | 1.59 ± 0.074 | 1.55 ± 0.099 | 1.37 ± 0.11 | 1.4 ± 0.05
27 | NVKEEETVAKSKNAERK [RPS8A] | 3.07 ± 0.038 | 3.09 ± 0.035 | 3.215 ± 0.022 | 3.001 ± 0.029

Row | Sequence | protein stability index (doa10∆) | protein stability index (pdr5∆) | protein stability index (san1∆) | protein stability index (ubr1∆)
28 | IKMQRQFSQLNDPNAAV [MED6] | 3.01 ± 0.07 | 3.04 ± 0.059 | 3.09 ± 0.06 | 3.16 ± 0.059
29 | VVEKKTVGSSNGGLIHV [RPO21] | 2.97 ± 0.081 | 3.07 ± 0.079 | 2.8 ± 0.053 | 3 ± 0.055
30 | NTGPSTGGLFGAKPAGS [YGL172W/NUP49] | 3.43 ± 0.12 | 3.32 ± 0.11 | 2.67 ± 0.17 | 
31 | PLIKKIKYEPRFEKAVK [SMC3] | 2.75 ± 0.072 | 2.72 ± 0.098 | 2.53 ± 0.13 | 2.48 ± 0.079
32 | AQTEIKLFNKWSFEEVE [RPS5] | 3.2 ± 0.092 | 3.23 ± 0.11 | 3.51 ± 0.09 | 3.22 ± 0.069
33 | SETADETLENNIVSVLT [RPN11] | 2.73 ± 0.11 | 2.94 ± 0.076 | 2.75 ± 0.11 | 2.78 ± 0.097
34 | PKPLKFLRPTYPDLCSI [RPN1] | 2.61 ± 0.07 | 2.69 ± 0.067 | 2.4 ± 0.06 | 2.5 ± 0.042
35 | EKERLESLTKEISAAHN [SMC3] | 3 ± 0.26 | 3.22 ± 0.15 | 2.79 ± 0.13 | 3.42 ± 0.19
36 | KDMSPILGELKRVKSYM [LRP1] | 2.43 ± 0.062 | 2.74 ± 0.056 | 2.51 ± 0.059 | 2.97 ± 0.038
37 | SEFDSRVKAMEVDEKPT [RPT5] | 2.77 ± 0.11 | 2.76 ± 0.089 | 3.08 ± 0.14 | 2.97 ± 0.062
38 | AEGQTNSISDFLGEQVN [RPN1] | 3.06 ± 0.079 | 2.89 ± 0.067 | 2.98 ± 0.077 | 3.12 ± 0.059
39 | KGLLIWRLLFIDKFIMV [GRR1] | 1.43 ± 0.062 | 1.35 ± 0.048 | 1.41 ± 0.089 | 1.5 ± 0.052
40 | KFQKLLQNSERDVELSS [SMC4] | 2.82 ± 0.065 | 3.18 ± 0.048 | 2.94 ± 0.041 | 3.05 ± 0.052
41 | QVIFEIFEISLQRKDYT [YML103C/NUP188] | 2 ± 0.053 | 2.19 ± 0.056 | 2.51 ± 0.069 | 2.84 ± 0.061
42 | VKKQKSARGIETRPAQV [FAS2] | 2.77 ± 0.1 | 3 ± 0.094 | 3.1 ± 0.083 | 3.09 ± 0.082
43 | KGLTYLHLDYNFNLKPT [PRP8] | 2.19 ± 0.032 | 2.12 ± 0.035 | 2.05 ± 0.05 | 2.22 ± 0.03
44 | GDHNKLRSTIANLLQIN [YML103C/NUP188] | 2.27 ± 0.054 | 2.35 ± 0.069 | 1.45 ± 0.13 | 1.87 ± 0.035
45 | QDKMFVSNPIRKVFKPS [FAS1] | 3.01 ± 0.058 | 2.62 ± 0.054 | 2.03 ± 0.1 | 2.68 ± 0.06
46 | ILVGGTLKDYQIKGLQW [SNF2] | 2.99 ± 0.076 | 2.83 ± 0.077 | 3.01 ± 0.056 | 3.16 ± 0.047
47 | YQELIKNGALVSNILSA [YJL039C/NUP192] | 1.76 ± 0.072 | 2.2 ± 0.057 | 1.82 ± 0.075 | 2.09 ± 0.062
48 | NNSDDEDVDDEELDITP [IRR1] | 3.25 ± 0.099 | 3.46 ± 0.11 | 3.58 ± 0.083 | 3.31 ± 0.077
49 | EHVILGNGELYMDCLLY [SNU114] | 2.31 ± 0.053 | 2.73 ± 0.073 | 2.76 ± 0.086 | 2.67 ± 0.063
50 | QLAIRNDDELNKLLGNV [HTA1] | 3.31 ± 0.14 | 3.38 ± 0.071 | 3.23 ± 0.064 | 3.43 ± 0.078
51 | TAPSSERRVLLSAPLSK [RPL26B] | 1.86 ± 0.041 | 2.4 ± 0.044 | 2.66 ± 0.062 | 2.08 ± 0.044
52 | DELEDDTLNETNLKMKR [RRP43] | 3.18 ± 0.093 | 3.25 ± 0.082 | 3.26 ± 0.075 | 3.36 ± 0.098
53 | SLDQGDAEEDSQVENRV [SMC4] |  |  |  | 2.83 ± 0.17
